Laboratory results: publication PMC4798948, “Nucleocapsid assembly in pneumoviruses is regulated by conformational switching of the N protein” (eLife, 2016)
Values joined by “and” are separate entries in the source; they are usually repeats but may differ in a detail not shown here. Identical values can stand only once.

Legend:
[1] = biological target: the molecule itself; experiment: electron cryomicroscopy with 2D classification; purified N-RNA preparation plunge-frozen on holey carbon grids; 2D-class averages with RELION
[2] = biological target: the molecule itself; experiment: crystal structure; N-RNA ring (~4 mg/mL), RNA-bound; 100 mM Tris/Bicine pH 8.5, 90 mM NPS, 37.5% MPD/PEG 1000/PEG 3350 (MORPHEUS); 4.2 Å; ten-fold non-crystallographic symmetry

B1: HMPV nucleoprotein N, assembled RNA-bound state (N-RNA rings) (natural protein)
chain: MSLQGIHLSDLSYKHAILKESQYTIKRDVGTTTAVTPSSLQQEITLLCGEILYAKHADYKYAAEIGIQYISTALGSERVQQILRNSGSEVQVVLTRTYSLGKIKNNKGEDLQMLDIHGVEKSWVEEIDKEARKTMATLLKESSGNIPQNQRPSAPDTPIILLCVGALIFTKLASTIEVGLETTVRRANRVLSDALKRYPRMDIPKIARSFYDLFEQKVYHRSLFIEYGKALGSSSTGSKAESLFVNIFMQAYGAGQTMLRWGVIARSSNNIMLGHVSVQAELKQVTEVYDLVREMGPESGLLHLRQSPKAGLLSLANCPNFASVVLGNASGLGIIGMYRGRVPNTELFSAAESYAKSLKESNKINFSSLGLTDEEKEAAEHFLNVSDDSQNDYE
notes: Nucleoprotein N of human metapneumovirus, strain NL1-00 (A1), full-length N gene, 394 residues; each N subunit contacts seven RNA nucleotides; also called subnucleocapsid ring; decameric N-RNA ring; source: Rosetta2 E. coli, purified (Ni-NTA, Superose 6), with RNA from the expression host
B1 was tested, and the “stoichiometry N” value [1] was 9 and 11 and the “stoichiometry N” value [2] was 10.
